Changes are numbered by the printed parent chain. Names and notes keep the numbering of the source.
B1: A327D (antibody, human IgG1, kappa)
heavy: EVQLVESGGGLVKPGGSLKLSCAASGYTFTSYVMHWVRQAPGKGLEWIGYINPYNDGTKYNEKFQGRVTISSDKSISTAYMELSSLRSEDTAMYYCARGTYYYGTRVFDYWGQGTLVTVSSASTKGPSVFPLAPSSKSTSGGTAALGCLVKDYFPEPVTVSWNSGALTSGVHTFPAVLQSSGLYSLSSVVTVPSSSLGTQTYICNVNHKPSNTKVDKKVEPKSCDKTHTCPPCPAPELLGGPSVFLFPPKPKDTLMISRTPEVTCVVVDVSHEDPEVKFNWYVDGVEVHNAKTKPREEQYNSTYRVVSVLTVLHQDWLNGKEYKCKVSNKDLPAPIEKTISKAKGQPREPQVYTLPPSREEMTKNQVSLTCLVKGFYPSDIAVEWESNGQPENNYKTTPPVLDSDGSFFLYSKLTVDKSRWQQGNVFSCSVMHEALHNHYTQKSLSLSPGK
light: DIVMTQSPATLSLSPGERATLSCRSSKSLQNVNGNTYLYWFQQKPGQSPQLLIYRMSNLNSGVPDRFSGSGSGTEFTLTISSLEPEDFAVYYCMQHLEYPITFGAGTKLEIKRTVAAPSVFIFPPSDEQLKSGTASVVCLLNNFYPREAKVQWKVDNALQSGNSQESVTEQDSKDSTYSLSSTLTLSKADYEKHKVYACEVTHQGLSSPVTKSFNRGEC
notes: HuAM4G7 anti-CD19 IgG1 (m1) with this Fc substitution, EU index; copies: 2 + 2
B2: L235F/S267E (antibody, human IgG1, kappa)
heavy: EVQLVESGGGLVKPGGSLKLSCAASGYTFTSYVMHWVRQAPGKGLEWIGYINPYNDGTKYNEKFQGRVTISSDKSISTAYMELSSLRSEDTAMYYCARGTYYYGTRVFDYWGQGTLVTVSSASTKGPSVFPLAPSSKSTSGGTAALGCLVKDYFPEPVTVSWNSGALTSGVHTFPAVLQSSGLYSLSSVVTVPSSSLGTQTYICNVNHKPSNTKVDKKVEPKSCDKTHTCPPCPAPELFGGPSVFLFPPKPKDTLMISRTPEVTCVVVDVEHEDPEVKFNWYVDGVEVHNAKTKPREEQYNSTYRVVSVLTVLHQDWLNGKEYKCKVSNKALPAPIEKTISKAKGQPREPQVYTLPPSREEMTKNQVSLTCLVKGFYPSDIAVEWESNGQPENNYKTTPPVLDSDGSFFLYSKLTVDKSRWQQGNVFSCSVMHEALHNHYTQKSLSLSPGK
light: B1 light
notes: HuAM4G7 anti-CD19 IgG1 (m1) with these Fc substitutions, EU index; copies: 2 + 2
B3: V266I (antibody, human IgG1, kappa)
heavy: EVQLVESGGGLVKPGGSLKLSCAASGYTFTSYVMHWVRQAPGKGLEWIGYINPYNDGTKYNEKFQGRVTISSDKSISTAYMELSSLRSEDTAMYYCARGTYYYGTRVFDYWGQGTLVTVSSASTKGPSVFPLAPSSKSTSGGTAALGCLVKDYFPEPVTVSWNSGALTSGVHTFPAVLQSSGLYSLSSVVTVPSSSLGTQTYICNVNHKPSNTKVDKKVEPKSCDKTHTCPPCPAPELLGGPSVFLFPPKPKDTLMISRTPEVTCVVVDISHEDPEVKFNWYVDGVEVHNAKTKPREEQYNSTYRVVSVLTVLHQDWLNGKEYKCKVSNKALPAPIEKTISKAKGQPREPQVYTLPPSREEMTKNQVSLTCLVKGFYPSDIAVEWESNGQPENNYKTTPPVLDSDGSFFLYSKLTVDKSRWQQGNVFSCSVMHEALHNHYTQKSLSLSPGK
light: B1 light
notes: as for B1
B4: L235Y (antibody, human IgG1, kappa)
heavy: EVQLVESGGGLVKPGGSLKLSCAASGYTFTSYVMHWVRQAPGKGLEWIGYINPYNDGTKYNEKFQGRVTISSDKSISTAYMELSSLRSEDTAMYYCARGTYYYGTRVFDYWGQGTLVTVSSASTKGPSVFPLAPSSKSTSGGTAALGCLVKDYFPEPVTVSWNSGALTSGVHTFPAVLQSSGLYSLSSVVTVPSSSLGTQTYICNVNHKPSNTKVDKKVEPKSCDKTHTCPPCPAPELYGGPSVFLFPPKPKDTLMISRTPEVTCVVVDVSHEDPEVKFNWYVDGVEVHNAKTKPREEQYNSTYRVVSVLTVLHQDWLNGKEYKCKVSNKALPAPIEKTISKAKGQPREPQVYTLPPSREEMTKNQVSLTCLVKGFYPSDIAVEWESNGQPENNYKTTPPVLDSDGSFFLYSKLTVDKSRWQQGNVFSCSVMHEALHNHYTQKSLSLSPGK
light: B1 light
notes: as for B1
B5: H268D (antibody, human IgG1, kappa)
heavy: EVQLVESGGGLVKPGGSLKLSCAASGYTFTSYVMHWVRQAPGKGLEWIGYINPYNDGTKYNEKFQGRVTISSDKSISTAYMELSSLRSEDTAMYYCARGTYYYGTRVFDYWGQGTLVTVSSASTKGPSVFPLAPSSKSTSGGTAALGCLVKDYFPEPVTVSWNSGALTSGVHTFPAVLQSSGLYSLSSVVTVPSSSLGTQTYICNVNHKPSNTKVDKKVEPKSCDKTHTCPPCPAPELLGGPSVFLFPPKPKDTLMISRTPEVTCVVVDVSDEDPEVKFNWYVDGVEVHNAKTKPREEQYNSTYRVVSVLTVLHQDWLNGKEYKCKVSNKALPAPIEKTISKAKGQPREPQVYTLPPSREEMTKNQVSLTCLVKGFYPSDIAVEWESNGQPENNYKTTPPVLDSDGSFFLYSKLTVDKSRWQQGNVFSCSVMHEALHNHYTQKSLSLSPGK
light: B1 light
notes: as for B1
B6: H268E (antibody, human IgG1, kappa)
heavy: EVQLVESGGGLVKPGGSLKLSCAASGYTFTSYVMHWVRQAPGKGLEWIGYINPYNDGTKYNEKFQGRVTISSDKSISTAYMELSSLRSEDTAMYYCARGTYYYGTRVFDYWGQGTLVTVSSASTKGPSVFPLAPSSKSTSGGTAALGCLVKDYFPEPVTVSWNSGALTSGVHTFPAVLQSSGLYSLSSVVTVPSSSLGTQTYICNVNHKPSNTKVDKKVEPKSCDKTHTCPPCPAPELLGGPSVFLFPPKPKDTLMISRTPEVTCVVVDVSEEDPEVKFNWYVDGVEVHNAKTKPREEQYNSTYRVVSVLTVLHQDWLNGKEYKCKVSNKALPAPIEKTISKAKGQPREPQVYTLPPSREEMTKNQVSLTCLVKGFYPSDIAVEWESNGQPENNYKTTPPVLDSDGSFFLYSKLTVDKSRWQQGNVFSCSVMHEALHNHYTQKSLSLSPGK
light: B1 light
notes: as for B1
B7: S267E/L328I (antibody, human IgG1, kappa)
heavy: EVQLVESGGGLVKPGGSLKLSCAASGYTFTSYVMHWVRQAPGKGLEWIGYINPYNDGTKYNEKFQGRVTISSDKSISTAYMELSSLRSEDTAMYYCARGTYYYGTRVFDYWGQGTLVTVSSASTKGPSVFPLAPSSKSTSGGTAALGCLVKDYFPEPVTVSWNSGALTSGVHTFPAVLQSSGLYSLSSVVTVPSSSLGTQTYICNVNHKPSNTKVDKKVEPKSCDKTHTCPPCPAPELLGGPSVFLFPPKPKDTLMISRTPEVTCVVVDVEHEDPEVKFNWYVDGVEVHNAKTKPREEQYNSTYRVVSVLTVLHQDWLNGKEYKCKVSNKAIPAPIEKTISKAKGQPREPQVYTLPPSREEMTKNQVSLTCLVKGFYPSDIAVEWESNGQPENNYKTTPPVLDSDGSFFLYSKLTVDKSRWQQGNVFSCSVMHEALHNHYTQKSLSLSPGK
light: B1 light
notes: as for B2
B8: S239E (antibody, human IgG1, kappa)
heavy: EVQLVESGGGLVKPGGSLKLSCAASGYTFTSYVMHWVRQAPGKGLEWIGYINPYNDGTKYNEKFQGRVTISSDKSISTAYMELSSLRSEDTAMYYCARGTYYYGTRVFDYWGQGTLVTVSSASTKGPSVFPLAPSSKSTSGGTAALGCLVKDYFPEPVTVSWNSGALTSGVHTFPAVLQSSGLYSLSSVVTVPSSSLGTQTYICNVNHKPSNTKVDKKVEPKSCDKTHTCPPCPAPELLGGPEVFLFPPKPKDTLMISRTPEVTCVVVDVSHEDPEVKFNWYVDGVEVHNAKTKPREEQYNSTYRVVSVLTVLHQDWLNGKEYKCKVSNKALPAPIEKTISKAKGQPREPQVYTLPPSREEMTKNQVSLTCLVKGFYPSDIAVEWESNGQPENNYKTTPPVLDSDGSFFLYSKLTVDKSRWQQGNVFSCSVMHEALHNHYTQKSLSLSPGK
light: B1 light
notes: as for B1
B9: S298Q (antibody, human IgG1, kappa)
heavy: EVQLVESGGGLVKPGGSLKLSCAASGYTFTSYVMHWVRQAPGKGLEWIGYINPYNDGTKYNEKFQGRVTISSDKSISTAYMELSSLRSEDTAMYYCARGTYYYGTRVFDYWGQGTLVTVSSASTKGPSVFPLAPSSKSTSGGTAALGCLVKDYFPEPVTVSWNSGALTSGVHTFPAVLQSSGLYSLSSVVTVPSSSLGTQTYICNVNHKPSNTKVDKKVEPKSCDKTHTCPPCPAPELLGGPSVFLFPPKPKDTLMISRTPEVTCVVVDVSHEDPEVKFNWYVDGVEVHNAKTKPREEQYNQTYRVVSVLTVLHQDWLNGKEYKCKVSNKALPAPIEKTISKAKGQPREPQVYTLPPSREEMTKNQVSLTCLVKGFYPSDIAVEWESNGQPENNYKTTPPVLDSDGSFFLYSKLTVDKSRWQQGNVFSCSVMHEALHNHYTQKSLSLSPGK
light: B1 light
notes: as for B1
B10: L234F (antibody, human IgG1, kappa)
heavy: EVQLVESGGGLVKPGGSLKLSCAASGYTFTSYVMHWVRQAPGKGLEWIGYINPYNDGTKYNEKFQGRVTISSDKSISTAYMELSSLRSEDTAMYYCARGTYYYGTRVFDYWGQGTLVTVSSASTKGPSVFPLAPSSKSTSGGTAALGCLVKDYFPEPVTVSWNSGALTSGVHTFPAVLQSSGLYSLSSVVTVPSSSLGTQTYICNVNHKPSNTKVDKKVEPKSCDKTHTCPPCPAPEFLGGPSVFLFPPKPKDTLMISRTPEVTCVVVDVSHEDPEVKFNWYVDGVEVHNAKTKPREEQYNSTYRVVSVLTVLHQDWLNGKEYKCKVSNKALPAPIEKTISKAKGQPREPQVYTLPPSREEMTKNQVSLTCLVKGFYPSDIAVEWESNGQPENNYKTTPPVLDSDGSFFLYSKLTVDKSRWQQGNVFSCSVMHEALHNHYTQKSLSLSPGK
light: B1 light
notes: as for B1
B11: V266M (antibody, human IgG1, kappa)
heavy: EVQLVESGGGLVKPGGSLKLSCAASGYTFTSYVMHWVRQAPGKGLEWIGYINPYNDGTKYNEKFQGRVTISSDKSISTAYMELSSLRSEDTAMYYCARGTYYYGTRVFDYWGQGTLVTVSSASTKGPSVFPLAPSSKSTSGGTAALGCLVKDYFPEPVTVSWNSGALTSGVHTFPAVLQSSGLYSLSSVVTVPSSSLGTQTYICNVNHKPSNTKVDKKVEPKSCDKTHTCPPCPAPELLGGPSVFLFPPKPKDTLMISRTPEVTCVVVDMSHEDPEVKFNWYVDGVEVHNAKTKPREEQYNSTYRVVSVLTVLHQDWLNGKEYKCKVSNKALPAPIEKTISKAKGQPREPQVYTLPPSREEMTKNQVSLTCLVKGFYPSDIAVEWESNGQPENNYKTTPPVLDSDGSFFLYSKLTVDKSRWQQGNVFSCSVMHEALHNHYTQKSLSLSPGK
light: B1 light
notes: as for B1

What follows are binders tested against T1, human FcγRIIb receptor protein (R&D Systems) (human, UniProt P31994 46-217) (assay: SPR).
T1 construct: Bought protein injected over captured antibody in Biacore; also called CD32b
T1 sequence (looked up): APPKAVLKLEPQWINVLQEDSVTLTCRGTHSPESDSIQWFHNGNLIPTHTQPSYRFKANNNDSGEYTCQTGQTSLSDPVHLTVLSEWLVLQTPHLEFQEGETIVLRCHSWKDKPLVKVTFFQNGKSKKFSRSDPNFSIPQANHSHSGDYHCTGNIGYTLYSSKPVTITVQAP

Binder	Fold vs WT IgG1	Kd	binding result
B1	1.33 fold	1100 nM	–
B2	28.4 fold	51.7 nM	–
B3	–	–	no binding
B4	1.05 fold	1400 nM	–
B5	3.06 fold	480 nM	–
B6	2.62 fold	560 nM	–
B7	53.4 fold	27.5 nM	–
B8	0.803 fold	1830 nM	–
B9	–	–	no binding
B10	0.409 fold	3590 nM	–
B11	1.91 fold	770 nM	–

These binders were tested against T2, human FcγRI receptor protein (R&D Systems) (human, UniProt P12314 16-288) (assay: SPR).
T2 construct: also called soluble FcγRI; solFcγRI
T2 sequence (P12314 16-288 limits assumed): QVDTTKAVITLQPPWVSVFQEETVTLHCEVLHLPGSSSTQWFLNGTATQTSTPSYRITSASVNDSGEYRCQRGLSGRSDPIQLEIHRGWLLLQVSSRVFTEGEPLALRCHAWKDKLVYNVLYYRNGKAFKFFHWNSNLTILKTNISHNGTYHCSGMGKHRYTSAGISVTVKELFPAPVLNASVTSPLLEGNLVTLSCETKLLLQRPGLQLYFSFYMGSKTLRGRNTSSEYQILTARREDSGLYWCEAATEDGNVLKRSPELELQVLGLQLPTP

Binder	Fold vs WT IgG1	Kd
B1	2.06 fold	0.16 nM
B2	0.0176 fold	18.7 nM
B4	0.00232 fold	142 nM
B5	2.35 fold	0.14 nM
B6	2.74 fold	0.12 nM
B8	1.65 fold	0.2 nM
B10	0.0362 fold	9.11 nM
B11	1.25 fold	0.264 nM

What follows are binders tested against T3, human FcγRIIa (131R), His- and GST-tagged (human, UniProt P12318 34-217) (assay: SPR).
T3 construct: Expressed in HEK293T cells, purified by nickel chromatography; also called R131 FcγRIIa; not shown: 6xHis and GST tags of the pTT5 vector
T3 sequence (looked up): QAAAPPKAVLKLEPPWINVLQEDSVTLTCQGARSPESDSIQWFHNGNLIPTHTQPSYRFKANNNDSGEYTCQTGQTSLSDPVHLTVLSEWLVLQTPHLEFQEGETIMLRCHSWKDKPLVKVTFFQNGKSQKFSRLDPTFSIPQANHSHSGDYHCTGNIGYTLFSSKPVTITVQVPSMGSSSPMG

Binder	Fold vs WT IgG1	Kd	binding result
B1	1.6 fold	536 nM	–
B2	32.5 fold	26.4 nM	–
B3	–	–	no binding
B4	1.28 fold	669 nM	–
B5	4.19 fold	205 nM	–
B6	3.19 fold	269 nM	–
B7	74 fold	11.6 nM	–
B8	0.688 fold	1250 nM	–
B9	–	–	no binding
B10	0.228 fold	3760 nM	–
B11	3.13 fold	274 nM	–

These binders were tested against T4, human FcγRIIa (131H), His- and GST-tagged (human, UniProt P12318 34-217) (assay: SPR).
T4 construct: also called H131 FcγRIIa; HIIa; not shown: 6xHis and GST tags of the pTT5 vector
T4 sequence (looked up): T3 sequence (looked up) with R134H

Binder	Fold vs WT IgG1	Kd	binding result
B1	0.733 fold	882 nM	–
B2	0.402 fold	1610 nM	–
B4	1.35 fold	479 nM	–
B5	1.89 fold	342 nM	–
B6	1.43 fold	453 nM	–
B8	0.49 fold	1320 nM	–
B10	–	–	no binding
B11	1.17 fold	553 nM	–

Each binder was assayed against T5, human FcγRIIIa (158V), His- and GST-tagged (human, UniProt P08637 17-208) (assay: SPR).
T5 construct: also called V158 FcγRIIIa; VIIIa; not shown: 6xHis and GST tags of the pTT5 vector
T5 sequence (P08637 17-208 F176V): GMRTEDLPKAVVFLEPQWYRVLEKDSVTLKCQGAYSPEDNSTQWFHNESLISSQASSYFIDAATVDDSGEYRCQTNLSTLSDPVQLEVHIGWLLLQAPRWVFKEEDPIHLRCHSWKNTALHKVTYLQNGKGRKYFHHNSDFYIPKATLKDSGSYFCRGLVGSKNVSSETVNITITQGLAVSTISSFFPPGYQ

Binder	Fold vs WT IgG1	Kd	binding result
B1	0.398 fold	481 nM	–
B2	–	–	no binding
B4	0.504 fold	380 nM	–
B5	3.08 fold	62.2 nM	–
B6	2.19 fold	87.5 nM	–
B8	3.49 fold	54.8 nM	–
B10	–	–	no binding
B11	0.547 fold	350 nM	–

What follows are binders tested against T6, mFcγRIIb (Mus musculus, UniProt P08101) (assay: SPR).
T6 construct: extracellular region, C-terminal His- and GST-tag; also called mouse FcγRII
T6 sequence (receptor extracellular region, looked up): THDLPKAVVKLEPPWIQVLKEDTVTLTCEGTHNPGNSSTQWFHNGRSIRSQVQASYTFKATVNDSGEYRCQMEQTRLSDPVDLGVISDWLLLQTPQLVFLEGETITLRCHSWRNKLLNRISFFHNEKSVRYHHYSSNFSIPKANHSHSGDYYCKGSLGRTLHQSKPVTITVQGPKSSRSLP

Binder	Fold vs WT IgG1 (Kd)	Fold vs WT IgG1 (off-rate)
B1	1.86 fold	4.1 fold
B3	–	1.42 fold
B4	–	1.02 fold
B5	1.11 fold	2.63 fold
B6	–	2.44 fold
B7	–	2.1 fold
B8	–	3.1 fold
B9	–	1.41 fold
B11	–	2.04 fold

Target: T7, mFcγRIV
T7 construct: also called mouse FcγRIV; not shown: C-terminal His and GST tags (named only on our card)
T7 chain: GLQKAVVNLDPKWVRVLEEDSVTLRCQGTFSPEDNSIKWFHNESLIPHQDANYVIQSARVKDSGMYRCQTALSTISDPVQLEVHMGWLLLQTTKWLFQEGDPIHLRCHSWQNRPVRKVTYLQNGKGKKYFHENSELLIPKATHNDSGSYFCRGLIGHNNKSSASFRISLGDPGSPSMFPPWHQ
Test: SPR

Binder	Fold vs WT IgG1 (Kd)	Fold vs WT IgG1 (off-rate)
B1	0.315 fold	0.876 fold
B2	–	0.515 fold
B3	–	1.19 fold
B4	–	0.507 fold
B5	0.47 fold	1.45 fold
B6	–	1.42 fold
B7	–	0.588 fold
B8	–	1.93 fold
B9	–	0.291 fold
B10	–	0.144 fold

The binders below were run against T8, cynoFcγRIIb (Macaca fascicularis, UniProt A0A140HDP4) (assay: SPR).
T8 construct: extracellular region, C-terminal His- and GST-tag; also called cynomolgus monkey FcγRIIb
T8 sequence (receptor extracellular region): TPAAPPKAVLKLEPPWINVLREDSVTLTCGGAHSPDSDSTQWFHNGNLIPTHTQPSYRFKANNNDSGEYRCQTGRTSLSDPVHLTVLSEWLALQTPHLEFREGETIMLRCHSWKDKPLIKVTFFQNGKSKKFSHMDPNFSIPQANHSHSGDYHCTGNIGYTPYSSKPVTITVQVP

Binder	Fold vs WT IgG1 (Kd)	Fold vs WT IgG1 (off-rate)
B1	1.16 fold	1.15 fold
B2	–	1.39 fold
B3	–	0.826 fold
B4	–	0.92 fold
B5	1.48 fold	3.94 fold
B6	–	2.23 fold
B7	–	0.831 fold
B8	–	1.25 fold
B9	–	0.714 fold
B10	–	0.936 fold

Each binder was assayed against T9, cynoFcγRIIIa (Macaca fascicularis, UniProt Q8SPW2) (assay: SPR).
T9 construct: extracellular region, C-terminal His- and GST-tag; also called cynomolgus monkey FcγRIIIa
T9 sequence (Q8SPW2 17-208): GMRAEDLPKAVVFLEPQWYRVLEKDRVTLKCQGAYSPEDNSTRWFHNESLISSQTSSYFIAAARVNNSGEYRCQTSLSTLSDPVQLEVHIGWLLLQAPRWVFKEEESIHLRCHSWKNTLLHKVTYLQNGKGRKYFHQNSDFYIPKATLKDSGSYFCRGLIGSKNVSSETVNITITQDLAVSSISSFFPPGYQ

Binder	Fold vs WT IgG1 (Kd)	Fold vs WT IgG1 (off-rate)
B1	0.783 fold	0.515 fold
B2	–	0.255 fold
B3	–	0.979 fold
B4	–	0.535 fold
B5	4.24 fold	1.65 fold
B6	–	1.51 fold
B7	–	0.437 fold
B8	–	2.26 fold
B9	–	0.271 fold
B10	–	0.561 fold
B11	–	0.433 fold

These binders were tested against T6, mFcγRIIb (assay: SPR, off-rate).
Procedure: (§1) Variants were screened for receptor affinity using Biacore™ technology, also referred to as Biacore herein, a surface plasmon resonance (SPR) based technology for studying biomolecular interactions in real time. SPR measurements were performed using a Biacore 3000 instrument (Biacore, Piscataway, N.J.). A protein A/G (Pierce Biotechnology) CM5 biosensor chip (Biacore) was generated using a standard primary amine coupling protocol. All measurements were performed using HBS-EP buffer (10 mM HEPES pH 7.4, 0.15 M NaCl, 3 mM EDTA, 0.005% vol/vol surfactant P20, Biacore). Antibodies at 20 nM or 50 nM in HBS-EP buffer were immobilized on the protein A/G surface and FcγRs were injected. After each cycle, the surface was regenerated by injecting glycine buffer (10 mM, pH 1.5). Data were processed by zeroing time and response before the injection of FcγR and by subtracting appropriate nonspecific signals (response of reference channel and injection of running buffer). Kinetic analyses were performed by global fitting of binding data with a 1:1 Langmuir binding model using BIAevaluation software (Biacore).
(§2) Variant antibodies were tested for their affinity to mouse or cynologous monkey FcγRs using Biacore SPR as described above. Specifically, antibodies were first immobilized on a protein A/G chip to high density, and then followed by injections of the extracellular domain of the mouse or cynologous monkey FcγR of interest. Both association and dissociation phases were tracked in real time using the Biacore technology.

Binder	binding result
B2	no binding
B10	no binding

Each binder was assayed against T8, cynoFcγRIIb (assay: SPR, off-rate).
Procedure: as §1, §2

Binder	binding result
B11	no binding

— US20130315910A1 (Xencor, published 2013)
